Assay results as given in the DeepSol protein solubility set.

Test: soluble on expression in E. coli; label from the status in PepcDB or PDB records

Sequence	soluble on expression in E. coli
MAHHHHHHMQRYLMNTSYLQGQLKSLYALHNKTVADYGELVQNLNEECTILCDVVPSYRISSTLENEDGGGQRKQKEVYNVQKLEHEILTQYTHFLQLLRKLSRKSHPEQQALGSRLCARLVKSSAPEFNHADALLSLAIDFANSKSVRVAQPCQTALSELLDDQKVSDTTEHIVGALLRIVRKRSYAMNPKLLNLLLHVRVAMVDVHREDLAEEKAKSKRLKKEDKELARQLQKSKARRDRAEIAAKQTRILHRIFVIYLRVIEASKTCSPVHQTKILAPTLEGLVKFAPLVNLELYQQLMEALKDLVKGGGTSRTRLRVGGTEGGSDGDNVDDKHEEETATSVTTRLHALVAVATLAQRDATATASEWRVDLSYFHEVLFRCLGEALELPSAESSSSAKMTREGEQEASNGDMDEVASQGSTSSAGSLSSQAFSIAQSMTQGTLVHQNASREWTFHVGLVLRAVDLLVLTQKHLPVARVTAILRRLIQATPLCPPHIAMSILALCHRIVLRYPLAGGVIVGGSDNVIAGRGAYNPEALQTASANADSSFTWELSLLSHSYHPTLRQVAETMCKHYHKVSKHQHGQAPIVTKQLDSLGPYEVIEEYDPSLGNLKPAAPLPTALKAEVRKRQREEAQAYEVA	not soluble
MSLVSLPKLSAKIIIRLIYIYQIGISPILGHHCRFSITCSQYGINSIRNFGILKGCWKTCIRILKCHPFNKNDNTQEGHHHHHH	soluble
MGSDKIHHHHHHMRSFTQSSKPIFKDHIVQQSSLVANNYRFIGPRLIDNTPVLFGSFSVVQLNPHLILHTADVINRHNMKTQNLLDSAIKLAIVVSGNAHISFGHQELHLGESQPASLIALTEPTMFTRIGKRDEYERTITLTFDREWLYGNMMDTVGDWQAIHDFTQTHLATHLWTPSRQARAIALQTLDANPCQTPLQRLYLETQCMSLIIEAFTSLTASVAQEKSSGVTLRGYHRIQQIRDMLESGSADHLSMSEIAKSVNMSESTLQRHFRQTFNMSVFEYLRNCRLQRAMLALQKDGIGIAQAASIAGYNSPANFATALRRAFGITPGQLKDRF	not soluble
MLEVSVMTIRRDLHQEDEPLPLTLLGGYIVMVNKPAPSMPVIHDVPKNHRDDLPIAILAAGMVNENDLIFFDNGQEIPLVISMIPDAITFTGICYSHRVFVALNEKPNVTAILCGGTYRARSDAFYDASNSSPLDSLNPRKIFISASGVHNHFGVSWFNPEDLATKRKVMNRGLRKILLARHALFDEVASASLAPISAFDVLISDRPLPADYVTHCQNGSVKIITPDSEDELEHHHHHH	not soluble
MSGDFDTIRDASSPDEVQLVRLLEEKIKSLQIEIENLRKELNYYKAEMEKMLSPPLIEAVVLDVLPDGRVLVRSSSGPNLVVNIASHIDQKLIKPGISVALNQRGSTILEVLPQKE	soluble
MSLKISIVTSTNVYADIAKNIVGKYGSAKAIIKNSATDPHDFEPTTQDAKELSSTNIIVANGLGYDSWMNKLASSVDKKPVLVGEELMKLKKGANPHIWYSLSMPTEYVDYLVKRLSKIDSKHKAYFEANGKKYLAKINQVKALAKNSKKTDKMVFVSEPVFDYALAEAGYKIGDKDFEKAVENNTDPSPKTINRMTNDIKNKKIAFFVNNTQSSSSTVKTFVKLAKQNNIPVLNVRETIPNHTTYLNWMKENYQNLANISKEGHHHHHH	soluble
MSLWRLKFFLDFEKEEKWLEEMAWKGYQLESTTFGYTFRYTEPEDATIRIDHRVFSRKSEFINYCTLFEDSGWEHIAGNRWSGTYYFKKVNEESEDDIFSDPMSRAGKYKRLSKTEGHHHHHH	not soluble
MKEIWLLAESESWDEAKEMLKDAIEIGFDGALVRRDFLERAEKLGRMKIVPIEDAVVKISSAEDQERALQREVVVLKFEDWKVIPLENIVAMKKSGKVIAAVDTIEDAKLALTTLERGADGIAVSGDRETLRKFYEVVKEEGERVELVRARVKEIRPLGVGERVCIDTVTLMTPGEGMLVGNQASFMFLVASESEESEYVASRPFRVNAGSVNAYLKVGDKTRYLAELKAGDEVEVVKFDGAVRKSYVGRVKIERRPLILIRAEVDGVEGSVILQNAETIKLVAPDGKHVSVAELKPGDEILVWLGKKARHFGVEVDEFIVER	not soluble
MGSDKIHHHHHHMTSTPGISDSLLSSMNGSGANNNTSAISETQDRFMKLLIAQMKNQDPLNPMDNAEVTSQMAQLSTVTGIEKMNASLSTFISSMQATQALQASSLIGNTVLVEGNSTYLAPAETEGESAAYLGVELPIGADKLTVNIKNGAGNVVKTITVTNQPAGISSLGWNGYGDDGTKLPDGRYTIEATATTGNSSVASTPLSYEQVMSVSTGSDGVKLNLSNLAAITTDQIKQIF	not soluble
